{"source": "the nanobody polyreactivity screen of Harvey et al. (2022)"}
{"test": "yeast display, Sf9 membrane polyspecificity reagent, FACS + sequencing; frameworks hold sequencing errors", "method_in_brief": "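Using colony PCR, genes from sorted yeast display clones were amplified, then sequenced on MiSeq at 2 × 250 and filtered by CDR length. The clones had been stained with 10% biotinylated, detergent-solubilized Sf9 membrane reagent for 1 hour at 4 °C and sorted by FACS into low and high (top ~1%) gates on anti-HA and streptavidin fluorescence. Polyreactivity labels come from the gate of origin.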"}
{"sequence": "QVQLVESGGGLVQAGGSLRLSCAASGRIFWPYAMGWYRQAPGKERELVAAITSGGSTYYADSVKGRFTISRDNAKNTVYLQMNSLKPEDTAVYYCNAKLRRHYDHLYDYWGQGTQVTVSS", "polyreactivity (PSR sort gate)": "low polyreactivity"}
{"sequence": "QVQLVESGGGLVQAGGSLRLSCAASGRTFGVYAMGWYRQAPGKERELVAAISKSDGSTYYADSVKGRFTISRDNAKNTVYLQMNSLKPEDTAVYYCATVTRHQRDTQYDYWGQGTQVTVSS", "polyreactivity (PSR sort gate)": "low polyreactivity"}
{"sequence": "QVQLVESGGGLVQAGGSLRLSCAASGGTFYYYAMGWYRQAPGKERELVAAISWSGVSTSYADSVKGRFTISRDNAKNTVFLQMNSMKPEDTAVYYCAAGPFYYTGGHWGQGTQVTVSS", "polyreactivity (PSR sort gate)": "high polyreactivity"}
{"sequence": "QVQLVESGGGLVQAGGSLRLSCAASGFTFGGYARGWSRQAPRTERELVAAISSSAGRTYYADSVKGRFTISRDNAKNTVYVQMNRLKPEDTAVYYCNTGGVYGPRRYYYWGQGTQVTVSS", "polyreactivity (PSR sort gate)": "high polyreactivity"}
{"sequence": "QVQLVESGGGLVQAGGSLRLSCAASGFTFLAYAMGWYRQAPGQERELVAAINSSDGTTHYADSVKGRFTISRDTAKNTVYLQMNSLKPEDTAVYYCAVSQVRTGEGYHYWGQGTQVTVSS", "polyreactivity (PSR sort gate)": "low polyreactivity"}
{"sequence": "QVQLVESGGGLVQAGGSLRLSCAASGSIFVANAMGWYRQAPGKETELVAAISQDGGTKYYADSVKGRFTISRDNAKNTVYLQMNSLKPEDTAVYYSAAEYPSFPEDDEYDYWGQGTQVTVSS", "polyreactivity (PSR sort gate)": "low polyreactivity"}
{"sequence": "QVQLVESGGGLVQAGGSLRLSCAASGRIYGYTMGWYRQAPGKERELVAAITRNGGSTYYADSVKGRFTISRDNSKNSVYLQMNSLKPEDTAVYYCAARNAFGTYYYWGQGTQVTVSS", "polyreactivity (PSR sort gate)": "high polyreactivity"}
{"sequence": "QFQLVESVGGLVQAGSRLRLSCAASGRTFIPYAMGWYRQAPGKERELVAAITSSGGLTYYADSVMGRFTISRDNAKNTVYLQMNSLKPEDTAVYYCNKYARGYDMDYWGHGTQVTVSS", "polyreactivity (PSR sort gate)": "high polyreactivity"}
{"sequence": "QVQLVESGGGLVQAGGSLRLSCDASGRTFPDYAIGWYIQAPGKESELVAAISGSGGSTYYADSVKGRFTISRDNAKNTVYLQMNSLKPEDTAVYYCAAEAETLLWYWFPSAVDYWGQGTQVTVSS", "polyreactivity (PSR sort gate)": "high polyreactivity"}
{"sequence": "QVQLVESGGGLVQAGGSLRLSCAASGLIFRWYDMGWYRQAPGKDRELVAAITRGGGTNYADSVKGRFTLSRDNAKNTVYLQMNSLKPEDTAVYYCAARLIKYGRAWTFGGYDYWGQGTQVSVSS", "polyreactivity (PSR sort gate)": "high polyreactivity"}
{"sequence": "QVQLVESGGGLVQAGGSLRLSCAASGIIFWSYVMGWYRQAPGKERELVAAITFSGGSTYYADSVKGRFTISRDNAKNTVYLQMNSLKPEDTAVYYCAARYKLVRRYDYWGQGTQVTVSS", "polyreactivity (PSR sort gate)": "low polyreactivity"}
{"sequence": "QVQLVESGGGLVQAGGSLRLSCAASGSTFSYNAMGWYRQAPGKERELVATITTGGRTSYADSVKGRFTISRDNAKNTVYLQMNSLKPEDTAVYYCAAVGRFSSRPRVVYYGYDYWGQGTQVTVSS", "polyreactivity (PSR sort gate)": "low polyreactivity"}
{"sequence": "QVQLVESGGGLVQAGGSLRLSCAASGGIFGYYAMGWYRQAPGKERELVAAISYSGGSTYADSVKGRFTISRDNAKNTVYLQMNSLKPEDTAVFYCAARVSSVTRSGFGYWGQGTQVTVSS", "polyreactivity (PSR sort gate)": "high polyreactivity"}
{"sequence": "QVQIVESGGGLVQAGGSLRLSCAASGSIFPINAMGWYRQAPGKERELVAVITSGGGGTYYADCVKGRYTISRDNAKNTVYLQMNSLKPEDPAGYYCAKRLSRKWQKFGYWGQGTQVTVSS", "polyreactivity (PSR sort gate)": "low polyreactivity"}
{"sequence": "QVQLVESGGGLVQAGGSLRLSCAPSGSTFFSKTMGWYRQAPWKERELVAAINDSGTSTYYADSVKRRFTISRDNSKKTVYLQMNSLKPEDTAVYYCAAYPSGWYDYWGQGTQVTVSS", "polyreactivity (PSR sort gate)": "low polyreactivity"}
{"sequence": "QVQLVESGGGLVQAGGSLRLSCAASGRIFRWYAMGWYRQAPGKERELVATISSTGGSTYYADSVKGRFTISRDNAKNTVYLQMNSLKPEDTAVYYCAVDPRGHEGVRYNYWGQGTQVTVSS", "polyreactivity (PSR sort gate)": "low polyreactivity"}
{"sequence": "QVQLVESGGGLVQAGGSLPLSCAASGSIFWRNAMGWYRQAPGKEREFVATITWSGDSTYYADSVKGRFTISRDNAKNTVYLQMNSLKPEDTAVYYYAAAYSNWHPGLDYWGQGTPVTVSS", "polyreactivity (PSR sort gate)": "low polyreactivity"}
